Legend:
[1] = target: T1, recombinant HIS-tagged human S100A10 (wild type) (human, UniProt P60903 1-97); test: SPR; Biacore 3000; GST-CCR10 CT amine-coupled on a CM5 chip; six concentrations of HIS-tagged S100A10 derivative injected; HBS-P buffer (10 mM Hepes pH 7.4, 150 mM NaCl, 0.005% Tween-20), 25 °C; binding to GST alone subtracted; single binding site model, KD by the Scatchard equation; details: both partners purified
T1 construct: human S100A10, cDNA in pET28a(+); also called HIS-S100A10; S100A10 wt; source: E. coli BL21(DE3)pLysS, purified (Ni-NTA); not shown: poly-histidine (HIS), N-terminal, kept
T1 sequence (P60903 whole entry): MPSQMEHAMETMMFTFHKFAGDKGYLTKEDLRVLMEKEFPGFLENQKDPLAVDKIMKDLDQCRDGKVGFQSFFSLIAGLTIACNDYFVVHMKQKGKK

[2] = target: T1, recombinant HIS-tagged human S100A10 …; test: pull-down; GST fusion proteins (50 μg) on glutathione sepharose beads incubated with purified protein (10 μg), 2 hours at 4 °C, IP buffer (20 mM Tris-HCl pH 7.5, 25 mM NaCl, 10 mM NaF, 1 mM EDTA, 0.1% Triton-X 100); immunoblot; details: both partners purified

| Kd [1] | binding result [2] | Binder |
| --- | --- | --- |
| ~1000 nM | – | GLRFRQDLRRLLRGGSCPSGPQPRRGCPRRPRLSSCSAPTETHSLSWDN (domain or fragment, UniProt P46092 314-362, looked up, C-terminal cytosolic tail of human CCR10, amino acid residues 314-362 (methods); the results print 314-369; Cloned in pGex-4T-1; Results print 314-369, methods 314-362; also called CCR10 CT_(314–369); pGex-CCR10CT_(314–362)) [GST-CCR10 CT (C-terminal cytoplasmic tail of human CCR10 fused to GST)] |
| – | binds | GLRFRQDLRRLLRGGSCPSGPQPRRG (domain or fragment, human, UniProt P46092 314-339, looked up, C-terminal tail of human CCR10, amino acid residues 314-339 (stop codon inserted into pGex-CCR10CT); also called T1 mutant) [GST-CCR10 CT truncation mutant T1] |

Reference: article PMC4778132, “CC chemokine receptor 10 cell surface presentation in melanocytes is regulated by the novel interaction partner S100A10” (Scientific Reports, 2016)
